Test results taken from patent US20240084005A1 (ALLAKOS, published 2024).
Changes are numbered by the printed parent chain.

B1: AK19 Fab (Fab, V domains shown)
VH: QVQLQESGPGLVKPSETLSLTCTVSGFSLTSYGVSWIRQPPGKGLEWIGVIWHDGSTSYHSTLISRVTISRDTSKNQVSLKLSSVTAADTAVYYCASDGYSGTFAYWGQGTLVTVSS
VL: QIVVTQSPATLSLSPGERATLSCTASSSVSSSYLHWYQQKPGQAPRLLIYSTSILASGIPARFSGSGSGTDFTLTISSLQPEDFAVYYCHQYHRSPYTFGQGTKLEIK
B2: AK20 Fab (Fab, V domains shown)
VH: B1 VH with S61P, T62S, I64K
VL: B1 VL
B3: AK21 Fab (Fab, V domains shown)
VH: B1 VH with T30S, S58N, H60N, S61P, T62S, I64K
VL: B1 VL
B4: AK04 Reference Fab (Fab, V domains shown)
VH: QVQLKESGPGLVAPSQSLSITCTVSGFSLTSYGVSWVRKPPGKGLEWLGVIWHDGSTSYHSTLISRLNISRDNSKSQVFLKLNSLQTDDTATYYCASDGYSGTFAYWGQGTLVTVSA
VL: QIVVTQSPAIMSASLGERVTMTCTASSSVSSSYLHWYQQKPGSSPKLWIYSTSILASGVPARFSGSGSGTSYSLTVSSMEAEDAATYYCHQYHRSPYTFGGGSKLEIR
B5: AK11 (antibody, V domains shown)
VH: EVMLVESGGGLVKPGGSLKLSCAASGFSFSTYVMSWVRQTPEKRLEWVASISGGGSNTYYPDSVKGRFTISRDNAKNTLYLQMSSLRSEDTALYYCARREVVVYWYFDVWGTGTTVTVSS
VL: DIQMTQSPASLSVSVGETVTITCRASENIYSNLAWYQQKQGKSPQLLVFSAKNLADGVPSRFGGSGSGTQYSLKINSLQSEDFGTYYCQHFWGTPLTFGAGTKLELK
notes: also called anti-Siglec-6 mAb AK11
B6: AK10 (antibody, V domains shown)
VH: EVQLQQSGPELMKPGASVKISCKASGYTFTDYYMNWVKQSHGKSLEWIGDINPKIGDTIYNQKFKGKATLTVDKSSSTAYMELRSLTSEDSAVYYCARWDYYGSSLFDYWGQGTTLTVSS
VL: DIVMTQSHKFMSTSVGDRVSITCKASQDVTTAVAWYQQKPGQSPKLLIYWASTRHTGVPDRFTGTGSGTDYTLTISNVQAEDLALYYCQQHYSTPYTFGGGTKLEIK
notes: also called anti-Siglec-6 mAb AK10
B7: AK14 (antibody, V domains shown)
VH: QIQLVQSGPELKKPGETVKISCKASGYTFTTYGMSWVKQAPGKGLKWMGWINTYSGVPTYADDFKGRFAFSLETSATTAYLQINNLKNEDTATYFCARLAYFGYYFDFWGQGTTLTVSS
VL: DIVMTQSQKFMSTTVGDRVSFTCKASQNVGSAVAWYQQKPGQSPKLLIYSASNRYTGVPDRFTGSGSGTDFTLTISNMQSEDLADYFCQQYSSYPYTFGGGTKLEIK
notes: also called anti-Siglec-6 mAb AK14
B8: AK09 (antibody, V domains shown)
VH: B7 VH with F29L, D63E, T77S, A100G, F102Y, F108Y
VL: DVVLTQSPATLSVTPGDSVSLSCRASQSIRNNLHWYQQKSHESPRLLIKYIFQSISGIPSRFSGSGSGTEFTLSINSVETEDFGMYFCQQSDSWPHVTFGAGTKLELI
notes: also called anti-Siglec-6 mAb AK09
B9: AK13 (antibody, V domains shown)
VH: B7 VH
VL: B7 VL with A34T
notes: also called anti-Siglec-6 mAb AK13
B10: AK15 (antibody, V domains shown)
VH: QVQLKESGPGLVAPSQSLSITCTVSGFSLTSYGVSWVRQPPGKGLEWLGIIWGDGSTNYHSALISRLSISKDKSKSQVFLKLNSLQADDTATYYCAKGLSDWYFDVWGTGTTVTVSS
VL: QIVLSQSPAILSASPGEKVTMTCRASSSVSYMHWYQQKPGSSPKPWIYATSNLASGVPARFSGSGSGTSYSLTISRVEAEDAATYYCQQWSSNPYTFGGGTKLEIK
notes: also called anti-Siglec-6 mAb AK15
B11: AK12 (antibody, V domains shown)
VH: QVQLKQSGPGLVQPSQSLSITCTVSGFSLTSYGVHWVRQSPGKGLEWLGVIWGGGSTDYNAGFISRLSISKDNSKSQVFFKMNSLQADDTAIYYCARALSDWYFDVWGTGTTVTVSS
VL: B10 VL with Y95L, G99A, I105L
notes: also called anti-Siglec-6 mAb AK12
B12: AK08 (antibody, V domains shown)
VH: B10 VH with S35N, V37I, I50V, K73N, A87T, G98A
VL: B10 VL
notes: also called anti-Siglec-6 mAb AK08
B13: AK05 (antibody, V domains shown)
VH: QVQLQQPGTELVKPGASVQLSCKASGYIFTSYWMYWVKQRPGQGLEWIGNVNPYSGDTNYNEKFKTKATLTVDKASSTAFIQLSGLTSEDSAVYFCARGDGLYYYAMDYWGQGTSVTVSS
VL: DIKMTQSPSSMYASLGERVTITCKASQDINSYLTWFQQKPGKSPKTLIYRASRLVDGVPSRFSGSGSGQDYSLTISSLEYEDMGIYYCLQYDEFPLTFGAGAKLELI
notes: also called anti-Siglec-6 mAb AK05
B14: AK06 (antibody, V domains shown)
VH: EVPLVESGGGLVKPGGSLKLSCAASGFTFSDYGIHWVRQAPEKGLEWVAYITSVSSTIYYADTVKGRFTISRDNAKNTLFLQMTSLRSEDTAMYYCAILDWYFDVWGTGTTVTVSS
VL: QIVLTQSPAIMSASPGEKVTMTCSANSSVSFMHWFQQKSGTSPKRWIYDTSKLASGVPARFSASGSGTSYSLTISSMEAEDAATYYCQQWSSNPLTFGAGTKVELK
notes: also called anti-Siglec-6 mAb AK06
B15: AK07 (antibody, V domains shown)
VH: EVQLQQSGPELVKPGASVKMSCKASGYTFTDYKMHWVKQSHGKSLEWIGNINPNNGGTSYNQKFKGKATLTVNKSSSTAYMELRSLTSEDSAVYYCARRYYGSSSSYFDYWGQGTTLTVSS
VL: B14 VL with A25V, N26S, F31Y, F35Y, A63G, L95P, V103L
notes: also called anti-Siglec-6 mAb AK07
B16: AK02 (antibody, V domains shown)
VH: QVQLQQPGAELVKPGASVKLSCKASGYTFTNYYIHWVKQRPGQGLEWIGMIHPISGSTNYNEKLKIKATLTVDKSSSTAYMQLSSLTSEDSAVYYCARRYYGSSYWYFDVWGTGTTVTVSS
VL: B10 VL with H33N, S69P, N93H, Y95P, G99S
notes: also called anti-Siglec-6 mAb AK02
B17: AK03 (antibody, V domains shown)
VH: EVQLQQSGTVLARPGASVKMSCKTSGYTFTSYWMHWVKQRPGQGLEWIGTIYPGNSDSTYNQKFKGKAKLTAVTSASTAYMEVSSLTNEDSAVYYCSREGTVVANYYGLDYWGQGTSVTVSS
VL: B10 VL with M32I, N93K, Y95P, G99A, I105L
notes: also called anti-Siglec-6 mAb AK03
B18: AK01 (antibody, V domains shown)
VH: QVQLKQSGPGLVQPSQSLSITCTVSGFSLTSYSVHWVRQSPGKGLEWLGVIWSGGSTDYNAVFISRLSISRDNSKSQVFFKMNSLQADDSAIYYCASYSYYTMDYWGQGTSVTVSS
VL: DVVMTQTPLSLPVSLGDQASISCRSSQSLVLDNGNTYLHWYLQKPGQSPKLLIYKVSNRFSGVPDRFTGSGSGTDFTLKINRVEAEDLGVYFCSQSTHVPFTFGSGTKLEIK
notes: also called anti-Siglec-6 mAb AK01
B19: AK04 (antibody, V domains shown)
VH: B4 VH
VL: B4 VL
notes: also called anti-Siglec-6 mAb AK04; AK04 IgG1

Biological target: Siglec-6 (antigen of Example 8) (human, UniProt O43699 27-347, limits assumed)
Assay: BLI, monovalent Fab

Sequence of Siglec-6 (antigen of Example 8) (O43699 27-347 limits assumed): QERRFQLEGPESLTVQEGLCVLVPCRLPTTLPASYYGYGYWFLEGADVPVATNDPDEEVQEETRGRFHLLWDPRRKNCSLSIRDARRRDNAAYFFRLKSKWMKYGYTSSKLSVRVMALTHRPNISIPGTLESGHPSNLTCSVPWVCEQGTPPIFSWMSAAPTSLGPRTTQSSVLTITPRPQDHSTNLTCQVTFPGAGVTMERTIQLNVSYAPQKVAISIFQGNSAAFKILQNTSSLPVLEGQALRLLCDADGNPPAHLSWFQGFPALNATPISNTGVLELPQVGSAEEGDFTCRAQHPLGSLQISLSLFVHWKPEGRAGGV

Kd [nM]	koff [s⁻¹]	kon [M⁻¹ s⁻¹]	Molecule
0.032	2.6e-05	830000	B1
0.12	9.1e-05	750000	B2
0.04	3.7e-05	920000	B3
0.075	6.5e-05	860000	B4

Biological target: T1, Siglec-6 domain 1 fused to a human Fc (human, UniProt O43699 27-147)
T1 construct: also called domain 1 fusion protein; not shown: human Fc
Assay: ELISA on Siglec-6 domain-human Fc fusions (Domain Mapping = 2)
Protocol: (§1) Domain mapping was assessed by ELISA using recombinantly expressed Siglec-6 extracellular domains fused to a human Fc containing the full ECD, domains 1 and 2, or domain 1. Siglec-6 mAbs were tested for binding to each of these domain fusion proteins and assigned domains based on their specific binding properties. Siglec-6 mAbs that bound to all three fusion proteins were assigned domain 1 binders, mAbs that bound to full ECD and domains 1 and 2 were assigned domain 2 binders, and mAbs that bound to only the full ECD protein were assigned domain 3 binders.

T1 sequence (O43699 27-147 limits assumed): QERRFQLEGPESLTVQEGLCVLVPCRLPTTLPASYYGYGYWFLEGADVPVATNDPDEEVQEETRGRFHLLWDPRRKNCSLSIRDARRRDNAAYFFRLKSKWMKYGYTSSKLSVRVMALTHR

binding result	Molecule
no binding	B5
no binding	B6

Biological target: T2, Siglec-6 domains 1 and 2 fused to a human Fc (human, UniProt O43699 27-237)
T2 construct: also called domains 1 and 2 fusion protein; not shown: human Fc
Assay: ELISA on Siglec-6 domain-human Fc fusions (Domain Mapping = 3)
Protocol: as §1

T2 sequence (O43699 27-237 limits assumed): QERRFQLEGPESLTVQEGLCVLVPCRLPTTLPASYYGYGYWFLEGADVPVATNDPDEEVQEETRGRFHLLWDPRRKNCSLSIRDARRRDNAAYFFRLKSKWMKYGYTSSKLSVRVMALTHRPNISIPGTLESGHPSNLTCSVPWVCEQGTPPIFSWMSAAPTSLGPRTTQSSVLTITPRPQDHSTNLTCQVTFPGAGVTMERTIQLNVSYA

binding result	Molecule
no binding	B7
no binding	B8
no binding	B9
no binding	B10
no binding	B11
no binding	B12

Biological target: T1, Siglec-6 domain 1 fused to a human Fc
Assay: as above
Protocol: as §1

binding result	Molecule
no binding	B7
no binding	B8
no binding	B9
no binding	B10
no binding	B11
no binding	B12

Biological target: T3, Siglec-6 ECD Fc protein (human, UniProt O43699 27-347)
T3 construct: also called Siglec-6 full ECD fused to a human Fc; not shown: human Fc
Assay: BLI (Octet Red 384), bivalent IgG on immobilized Siglec-6 ECD Fc
Protocol: Bivalent binding affinities of IgG for Siglec-6 mAbs were measured by biolayer interferometry using a FortéBio Octet Red 384 instrument using immobilized Siglec-6 ECD Fc protein.

T3 sequence (O43699 27-347): as the sequence (O43699 27-347 limits assumed) above

Kd [nM]	Molecule
0.009	R&D MAB2859 (antibody)
0.002	B5
0.072	B7
0.11	B8
0.063	B9
0.055	B13
0.024	B14
0.069	B15
1.04	B10
0.007	B16
0.087	B11
0.001	B17
0.261	B12
0.084	B6
0.001	B18
0.001	B19
